This note sets out measurements from PMC8885419, “Identification and mechanism of G protein-biased ligands for chemokine receptor CCR1” (Nature Chemical Biology, 2021).

The target in assay [1] is β-arrestin2 (βarr2). The assay is described as follows: β-arrestin2 recruitment dose-response (method not named for this panel; panel d of the same figure is NanoBiT). Conditions: agonist CCL15M (CCL15 27-92) at 1e-6 M (highest dose); parent: est. 100; read off a plot. For orientation: Arrestin recruitment assays detect the binding of arrestin to an activated receptor.
In assay [2] the target is T1, wild-type full-length human CCR1 fused with LgBiT at the C terminus (cryo-EM construct) (human, UniProt P32246 1-355).
T1 construct: chemokine receptor CCR1, human, wild type, full length; Expressed with a chemokine (CCL15 (26–92), CCL15 (27–92), or CCL3 (4–69) for the apo complex) fused to its N terminus by a GS linker with a TEV site; the linker was cut with TEV protease and 2*MBP removed with 3C protease; Also used here as the target of the functional rows on wild-type CCR1 in cells, whose construct for the G protein …
T1 sequence (looked up): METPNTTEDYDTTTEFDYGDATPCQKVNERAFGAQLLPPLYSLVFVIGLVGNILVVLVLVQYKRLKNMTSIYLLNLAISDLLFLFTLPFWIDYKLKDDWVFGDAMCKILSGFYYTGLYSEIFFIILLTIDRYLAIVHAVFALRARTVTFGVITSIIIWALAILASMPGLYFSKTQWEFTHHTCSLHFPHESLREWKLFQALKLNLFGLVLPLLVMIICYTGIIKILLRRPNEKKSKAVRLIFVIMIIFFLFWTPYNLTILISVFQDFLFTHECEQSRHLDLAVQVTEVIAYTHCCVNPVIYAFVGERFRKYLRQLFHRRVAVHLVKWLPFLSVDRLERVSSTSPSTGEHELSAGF
Nature of the assay: cryo-EM structure; CCL15-bound CCR1–Gi complexes (CCL15^L, CCL15^M); chemokine expressed fused to CCR1 and cut with TEV; co-expressed with Gi in SF9; NanoBiT tethering of CCR1-LgBiT and Gβ1-SmBiT; scFv16 added; 20 mM HEPES pH 7.5, 100 mM NaCl, LMNG/CHS/GDN. Conditions: both partners purified.

Regarding “CCR1 (1–327 aa) with LgBiT at the C terminal (from UniProt P32246) T86A; W90A”, the percent of parent (% wild-type/CCL15M max) in assay [1] came to 81.

In the case of “CCR1 (1–327 aa) with LgBiT at the C terminal (from UniProt P32246) Y113F; Y255F”, the percent of parent (% wild-type/CCL15M max) in assay [1] came out at 85.

B1: CCL15 (26–92) (ligand, human, UniProt Q16663 47-113, looked up)
chain: FHFAADCCTSYISQSIPCSLMKSYFETSSECSKPGVIFLTKKGRQVCAKPSGPGVQDCMKKLKPYSI
notes: chemokine CCL15, human, residues 26–92 of CCL15 (1–92), first residue F26; also called CCL15^L; long form CCL15; source: SF9 insect cells, expressed fused to the N terminus of CCR1, cut with TEV protease, purified in the complex
With B1, the binding result in assay [2] is given as “binds”.

B2: CCL15 (27–92) (ligand, human, UniProt Q16663 48-113, looked up)
chain: HFAADCCTSYISQSIPCSLMKSYFETSSECSKPGVIFLTKKGRQVCAKPSGPGVQDCMKKLKPYSI
notes: chemokine CCL15, human, residues 27–92 of CCL15 (1–92); In the cryo-EM sample residues of the GS/TEV linker may remain at the C terminus; also called CCL15^M; medium form CCL15; source: SF9 insect cells, expressed fused to the N terminus of CCR1, cut with TEV protease, purified in the complex
As to B2, the binding result in assay [2] is recorded as “binds”.
